Key:
CD28-Fc (human) = CD28-Fc (human) (UniProt P10747); experiment: not stated at that place; binding to human CD28 (SPR with CD28-Fc is the only affinity experiment of the filing)
[1] = target: CD28/GFP fusion protein on transfected HEK293T cells (UniProt P10747); experiment: competition: flow cytometry contour plot, CD28/GFP cells co-incubated with B7-2/Cherry cells in the presence of p2TA at 1 µg ml-1 (16.0 % without peptide, Fig. 6D)
[2] = target: CD28/GFP fusion protein on transfected HEK293T cells (UniProt P10747); experiment: competition: flow cytometry contour plot, CD28/GFP cells co-incubated with B7-2/Cherry cells in the presence of p2TA at 0.3 µg ml-1 (16.0 % without peptide, Fig. 6D)
[3] = target: CD28/GFP fusion protein on transfected HEK293T cells (UniProt P10747); experiment: flow cytometry contour plot, CD28/GFP cells co-incubated with B7-2C/Cherry cells, no peptide (negative control)

percent double labeled cells (upper right quadrant) [3] [%]	Substance	Kd (CD28-Fc (human)) [nM]	percent double labeled cells (upper right quadrant) at 1 µg ml-1 p2TA [1] [%]	percent double labeled cells (upper right quadrant) at 0.3 µg ml-1 p2TA [2] [%]
	(D-Ala)-p2TA-(D-Ala) (peptide)	2000	8.1	10.3
1.5	B7-2C/Cherry fusion protein on transfected HEK293T cells (from UniProt P42081 24-329) (ligand)			

Source: US20180215804A1
